Molecular target: PARK2 (UniProt O60260)
Assay: co-IP of Flag-PARK2 and Myc-BCL-2
Settings: reference: wild type Myc-BCL-2; sites S70

- binding against the reference: lost
Substance: BCL-2 (from UniProt P10415) S70A

From publication PMC7481404
